Laboratory results published in patent publication US20130309233A1 (SORRENTO THERAPEUTICS, published 2013).
Where two headings read alike, the source gives them in different places.

B1: D2 (antibody, IgG1, V domains shown)
VH: EVQLVESGGGVVQPGRSLRLSCAASGFIFNHYAMHWVRQAPGKGLEWVAHISSDGSYKFYADSVKGRFTVSRDNSDNTVYLQMNSLGPEDTAVYHCARFTEVLYYGADYWGQGTLVTVSS
VL: QSVLTQPPSVSEAPRQRVSISCSGSSSNIGNNAVNWYQQLPGKAPKLLIYFDDLLPSGVSDRFSGSKSGTSASLAISGLQSEDEADYYCAAWDDSLKGYVFGTGTKVTVL
notes: also called EGFR-D2; Clone D2
B2: A6 (antibody, IgG1, V domains shown)
VH: QVQLVQSGAEVKKPGSSVKVSCKASGGTFRNHAFSWVRQAPGQGLEWMGWISAYNGYTHYAEKLQGRVTMTTDTSTSTAYMELRSLRSDDTAVYYCARVSASYNSDWSLHYYYGMDVWGQGTTVTVSS
VL: QSVLTQPPSVSAAPGQEVTISCSGSNSNIGNNYVSWYQQLPGTAPKLLIYDNNERPSGIPDRFSGSKSGTSATLGITGLQTGDEADYYCGTWDSSLSAGVFGGGTKLTVL
notes: also called EGFR-A6; Clone A6

Legend:
[1] = target: T1, EGFR expressed on the surface of cells (A431, A549, MCF7 and other EGFR-expressing cell lines) (human, UniProt P00533 25-1210); experiment: flow cytometry on A431 cells, blocking of biotinylated human EGF binding (competitor: Human EGF Biotinylated Fluorokine)
T1 construct: whole, on cells; also called EGF Receptor; cell surface EGFR
Description: Cells were finally resuspended in 25 μl FACS Buffer and the median fluorescence intensity in the FL1-H channel was determined using an Intellicyt HTFC flow cytometer. […] Data was analyzed and plotted in Graph Pad Prizm using non-linear regression fit. Data points are shown as the median fluorescence intensity (MFI)+/−Std Error.

[2] = target: T1, EGFR expressed on the surface of cells …; experiment: flow cytometry on A431 cells, 12-point titration, PE anti-human IgG
Description: (§1) In this example, the experimental procedure was as follows: 50,000 A431 cells were aliquoted into the wells of a 96-well, v-bottom plate in 100 ul FACS Buffer (PBS+2% FBS). […] Cells were spun down, washed 1× with FACS Buffer, and then resuspended in 25 μl of antibody solution in triplicate. […] Cells were further incubated for 0.5 hr and then washed 1× with FACS Buffer. Cells were resuspended in 25 ul FACS Buffer and the median fluorescence intensity in the FL2-H channel was determined using the Intellicyt HTFC flow cytometer.
(§2) Data was analyzed and plotted in Graph Pad Prizm using non-linear regression fit. Data points are shown as the median fluorescence intensity (MFI) of positively labeled cells+/−Std Error.

[3] = target: T1, EGFR expressed on the surface of cells …; experiment: cell-based or functional assay
[4] = target: T1, EGFR expressed on the surface of cells …; experiment: cell-based or functional assay; remark: listed apart in the source
[5] = target: T1, EGFR expressed on the surface of cells …; experiment: flow cytometry on A431 cells (FIG. 2 legend; the same experiment as paragraph 158, printed with another rounding); A431 cells; FIG. 2 legend
Description: as §1, §2

[6] = target: T1, EGFR expressed on the surface of cells …; experiment: cell-based or functional assay; remark: listed apart in the source

Binder | IC50 [1] [nM] | EC50 [2] [nM] | ADCC Reporter Bioassay (luciferase, RLU) on A431 target cells, EC50 [3] [pM] | IC50 (M), inhibition of EGF-stimulated EGFR auto-phosphorylation in A549 cells [4] [M] | EC50 [5] [nM] | decrease in EGF stimulated receptor phosphorylation assay in EGFR positive cells (A431) [3] [%] | IC50 (M), inhibition of EGF-stimulated EGFR auto-phosphorylation in A549 cells [6] [M]
B1 | 1.35 | 0.28 | 200 | 1.3e-09 |  |  | 
B2 | 2.06 | 1.3 | 60 |  | 1.29 | ~10 | 1.1e-09
